Experiment in all cases: Kinase panel residual activity
What all share (type): biochemical
Common to all, as to conditions: compound at 1 micromolar

One data set concerns the target T1, ULK1 (Homo sapiens, UniProt O75385).
T1 sequence (O75385 1-1050): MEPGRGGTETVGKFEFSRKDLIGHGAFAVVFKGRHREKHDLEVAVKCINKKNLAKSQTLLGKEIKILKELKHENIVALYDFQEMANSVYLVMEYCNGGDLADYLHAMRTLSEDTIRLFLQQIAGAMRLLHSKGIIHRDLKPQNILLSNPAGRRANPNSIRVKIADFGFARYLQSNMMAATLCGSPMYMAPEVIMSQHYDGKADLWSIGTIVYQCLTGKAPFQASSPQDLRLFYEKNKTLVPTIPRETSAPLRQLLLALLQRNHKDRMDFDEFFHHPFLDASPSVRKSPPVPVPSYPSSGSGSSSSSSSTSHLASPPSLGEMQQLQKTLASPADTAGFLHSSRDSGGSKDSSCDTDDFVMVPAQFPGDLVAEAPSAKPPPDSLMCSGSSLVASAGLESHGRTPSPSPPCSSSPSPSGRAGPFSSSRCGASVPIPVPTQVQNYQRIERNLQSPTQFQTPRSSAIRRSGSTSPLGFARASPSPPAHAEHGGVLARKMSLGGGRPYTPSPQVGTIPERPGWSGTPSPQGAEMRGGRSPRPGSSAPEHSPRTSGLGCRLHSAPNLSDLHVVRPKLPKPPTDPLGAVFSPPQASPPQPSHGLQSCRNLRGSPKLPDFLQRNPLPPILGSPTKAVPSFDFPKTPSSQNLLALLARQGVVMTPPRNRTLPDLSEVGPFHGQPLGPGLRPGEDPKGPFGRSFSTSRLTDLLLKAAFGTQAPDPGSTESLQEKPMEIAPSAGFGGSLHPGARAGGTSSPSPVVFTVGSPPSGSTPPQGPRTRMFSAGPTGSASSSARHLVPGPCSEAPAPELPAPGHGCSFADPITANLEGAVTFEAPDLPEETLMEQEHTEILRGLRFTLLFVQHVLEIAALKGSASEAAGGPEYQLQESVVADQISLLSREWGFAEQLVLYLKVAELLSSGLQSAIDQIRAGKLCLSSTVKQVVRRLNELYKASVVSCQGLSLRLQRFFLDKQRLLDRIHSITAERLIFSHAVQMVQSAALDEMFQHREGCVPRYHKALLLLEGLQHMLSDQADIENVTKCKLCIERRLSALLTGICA

Another data set deals with T2, TLK1 (Homo sapiens, UniProt Q9UKI8).
T2 sequence (Q9UKI8 1-766): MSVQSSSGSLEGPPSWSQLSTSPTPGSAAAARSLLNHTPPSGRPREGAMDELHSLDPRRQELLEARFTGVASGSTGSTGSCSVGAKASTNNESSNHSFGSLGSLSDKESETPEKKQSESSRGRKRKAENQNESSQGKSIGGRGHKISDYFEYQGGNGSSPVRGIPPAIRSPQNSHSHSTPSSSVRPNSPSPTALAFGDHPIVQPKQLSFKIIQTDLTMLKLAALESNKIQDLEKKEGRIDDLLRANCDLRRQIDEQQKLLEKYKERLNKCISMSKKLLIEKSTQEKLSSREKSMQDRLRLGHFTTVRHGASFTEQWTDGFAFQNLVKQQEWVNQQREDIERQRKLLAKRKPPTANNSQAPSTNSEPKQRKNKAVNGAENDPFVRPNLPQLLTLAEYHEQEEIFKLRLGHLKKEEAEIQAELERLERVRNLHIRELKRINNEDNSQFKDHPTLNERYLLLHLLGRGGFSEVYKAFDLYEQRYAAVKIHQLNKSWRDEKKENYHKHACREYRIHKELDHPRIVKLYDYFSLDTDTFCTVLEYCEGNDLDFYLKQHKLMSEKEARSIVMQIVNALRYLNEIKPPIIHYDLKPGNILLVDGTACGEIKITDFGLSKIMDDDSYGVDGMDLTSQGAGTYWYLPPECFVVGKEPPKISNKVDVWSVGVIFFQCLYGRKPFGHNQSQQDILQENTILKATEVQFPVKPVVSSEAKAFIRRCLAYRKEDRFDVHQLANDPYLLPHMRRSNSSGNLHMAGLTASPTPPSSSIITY

In the next data set the target is T3, IKKb (Homo sapiens, UniProt O14920).
T3 sequence (O14920 1-756): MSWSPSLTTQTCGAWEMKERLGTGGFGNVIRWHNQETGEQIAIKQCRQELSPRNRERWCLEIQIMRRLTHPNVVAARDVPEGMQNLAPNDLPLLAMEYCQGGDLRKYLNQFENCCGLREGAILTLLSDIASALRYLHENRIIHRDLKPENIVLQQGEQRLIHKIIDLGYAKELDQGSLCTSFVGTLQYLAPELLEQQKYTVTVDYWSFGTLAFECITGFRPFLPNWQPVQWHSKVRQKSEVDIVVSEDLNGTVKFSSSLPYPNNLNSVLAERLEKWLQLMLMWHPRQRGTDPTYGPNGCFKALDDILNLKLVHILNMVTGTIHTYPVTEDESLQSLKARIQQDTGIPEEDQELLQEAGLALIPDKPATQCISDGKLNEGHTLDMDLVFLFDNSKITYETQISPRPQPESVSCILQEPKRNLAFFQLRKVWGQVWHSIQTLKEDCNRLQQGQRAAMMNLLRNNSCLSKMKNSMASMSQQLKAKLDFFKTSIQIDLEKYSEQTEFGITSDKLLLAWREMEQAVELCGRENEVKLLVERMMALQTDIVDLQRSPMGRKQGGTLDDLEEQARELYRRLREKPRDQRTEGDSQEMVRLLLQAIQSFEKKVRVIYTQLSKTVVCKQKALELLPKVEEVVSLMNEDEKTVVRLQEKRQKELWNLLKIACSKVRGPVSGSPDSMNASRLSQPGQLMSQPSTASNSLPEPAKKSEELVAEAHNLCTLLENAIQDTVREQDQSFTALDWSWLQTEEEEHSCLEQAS

Where a SMILES comes first, the peptide text is derived from it. [ ]: non-standard residue; d: D form. The star is where a group is joined. X1 = O=C(CCCCCCCn1cnc2c(Br)c(Br)c(Br)c(Br)c21)*

The remaining activity is the signal under treatment as a percentage of the control signal. Consider `NCCCC[C@H](NC(=O)[C@H](CC(=O)O)NC(=O)[C@H](CC(=O)O)NC(=O)[C@H](CC(=O)O)NC(=O)[C@H](CC(=O)O)NC(=O)[C@H](CC(=O)O)NC(=O)[C@@H](CC(=O)O)NC(=O)CCCCCCCn1cnc2c(Br)c(Br)c(Br)c(Br)c21)C(=O)O` [TBBI-OcA-(D-Asp)-(L-Asp)5-(L-Lys)-OH] (X1-[dD]DDDDDK-OH), for which the figures for the remaining activity at 1 µM in the data set with ULK1, in the data set with TLK1 and in the data set with IKKb were 111%, 107% and 55%, respectively.

These data come from US9176064B2, “Bisubstrate fluorescent probes for protein kinase CK2” (University of Tartu, priority 2012, dated 2015).
